Biological target: recombinant human a7 nicotinic acetylcholine receptor expressed in Xenopus oocytes (human) (UniProt P36544)
Assay: cell-based or functional assay

Sequence of recombinant human a7 nicotinic acetylcholine receptor expressed in Xenopus oocytes (human) (P36544 23-502): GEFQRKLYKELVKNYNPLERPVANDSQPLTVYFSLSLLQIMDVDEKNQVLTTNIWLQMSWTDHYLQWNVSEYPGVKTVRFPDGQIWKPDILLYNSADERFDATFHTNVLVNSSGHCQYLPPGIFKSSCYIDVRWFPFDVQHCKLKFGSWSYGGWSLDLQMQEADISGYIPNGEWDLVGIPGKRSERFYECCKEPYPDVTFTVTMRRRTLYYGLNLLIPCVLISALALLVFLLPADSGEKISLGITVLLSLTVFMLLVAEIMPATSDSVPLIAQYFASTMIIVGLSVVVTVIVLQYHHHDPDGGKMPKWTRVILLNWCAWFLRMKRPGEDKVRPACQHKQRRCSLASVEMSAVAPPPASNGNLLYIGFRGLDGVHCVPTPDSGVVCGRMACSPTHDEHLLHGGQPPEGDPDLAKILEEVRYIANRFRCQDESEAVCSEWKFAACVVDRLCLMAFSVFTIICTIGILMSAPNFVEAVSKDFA

recombinant SLURP-1 with C-terminal myc tag and His6 tag (highly purified SLURP-1) (from UniProt P55000 23-103) (ligand)
EC50 of acetylcholine on the receptor after 2.5 min exposure to 200 pM SLURP-1 (FIG. 5C; control 178 µM; n=6 for each data point): 68 µM | EC50 of acetylcholine on the receptor after SLURP-1 treatment (FIG. 5B; control 175 µM): 68 µM | increase of the amplitude of acetylcholine-evoked macroscopic currents at 200 pM SLURP-1, compared with control (two-electrode voltage clamp, oocytes; n=6): 421% | increase of the amplitude of acetylcholine-evoked macroscopic currents at 20 nM SLURP-1, compared with control (two-electrode voltage clamp, oocytes; n=4): 1210%

From US20050004025A1
